Experimental findings from publication PMC10830566 (2024) are described below.

For test [1], the target named is T1, endothelial protein C receptor (EPCR), extracellular region, with a C-terminal 12xHis tag (human, UniProt Q9UNN8 18-210).
T1 chain: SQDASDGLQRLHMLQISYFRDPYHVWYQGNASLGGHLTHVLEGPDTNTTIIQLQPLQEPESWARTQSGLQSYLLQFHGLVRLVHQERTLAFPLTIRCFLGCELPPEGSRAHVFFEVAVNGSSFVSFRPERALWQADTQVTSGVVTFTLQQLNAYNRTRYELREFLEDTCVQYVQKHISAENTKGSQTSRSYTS
The test can be described thus: BLI.

The target in test [2] is T1, endothelial protein C receptor (EPCR), …. The test can be described thus: BLI.

B1: activated protein C (APC) (enzyme)
chain 1: ANSFLEELRHSSLERECIEEICDFEEAKEIFQNVDDTLAFWSKHVDGDQCLVLPLEHPCASLCCGHGTCIDGIGSFSCDCRSGWEGRFCQREVSFLNCSLDNGGCTHYCLEEVGWRRCSCAPGYKLGDDLLQCHPAVKFPCGRPWKRMEKKRSHL
chain 2: LIDGKMTRRGDSPWQVVLLDSKKKLACGAVLIHPSWVLTAAHCMDESKKLLVRLGEYDLRRWEKWELDLDIKEVFVHPNYSKSTTDNDIALLHLAQPATLSQTIVPICLPDSGLAERELNQAGQETLVTGWGYHSSREKEAKRNRTFVLNFIKIPVVPHNECSEVMSNMVSENMLCAGILGDRQDACEGDSGGPMVASFHGTWFLVGLVSWGEGCGLLHNYGVYTKVSRYLDWIHGHIRDKEAPQKSWAP
modifications: gamma-carboxyglutamate in the Gla domain of the light chain (incl. Gla7 = precursor 49); light and heavy chains disulfide-linked; activation peptide 200-211 and Lys-Arg 198-199 removed …; chain limits taken from the UniProt features
In test [1], B1 had a Kd of 67 nM. This molecule registered a koff in test [2] of 0.0021 s⁻¹.
